For one substance, stoichiometry N results are on record in article PMC8412950.

One may read the stoichiometry N as the number of molecules, sites or subunits per partner or assembly.

For this experiment, the target named is NRC3 NB-ARC domain (NRC3^NB-ARC, Val-152 to Ser-507) (Nicotiana benthamiana). The experiment can be described thus: SEC. For orientation: Size exclusion chromatography separates by hydrodynamic size, large species first.

In turn, “Recombinant SS15 protein (Ser-25 to Ile-246, lacking signal peptide) (domain or fragment)” came in with a stoichiometry N of 1.
